Measured values as given in US20240117030A1 (Pfizer, published 2024).
Numbering of substitutions follows the chain as printed. Blank lines part the entries; values can stand above or below the binder they belong to.

What was measured:
Experiment in all cases: cell-based or functional assay
human IL-13 = human IL-13 (human, UniProt P35225 35-146)
human IL-4 = target: T1, human IL-4 (human, UniProt P05112 25-153)
T1 sequence (looked up): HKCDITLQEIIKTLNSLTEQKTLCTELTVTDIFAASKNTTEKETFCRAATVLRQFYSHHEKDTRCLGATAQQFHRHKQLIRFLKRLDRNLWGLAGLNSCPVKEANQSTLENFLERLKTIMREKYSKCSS

[1] = target: T2, IL-33 (mm2), human IL-33 variant with all four cysteines changed to serine (human, UniProt O95760 112-270, limits assumed)
T2 sequence (looked up): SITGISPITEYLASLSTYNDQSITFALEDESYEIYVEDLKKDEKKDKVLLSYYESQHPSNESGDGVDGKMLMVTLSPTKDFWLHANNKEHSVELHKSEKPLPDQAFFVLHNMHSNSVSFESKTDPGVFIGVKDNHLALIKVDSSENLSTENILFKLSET

[2] = target: T3, recombinant human IL-33 (wild type, Ser112-Thr270) (human, UniProt O95760 112-270)
T3 sequence (looked up): T2 sequence (looked up) with S97C, S116C, S121C, S148C

Sequence of human IL-13 (P35225 35-146 limits assumed): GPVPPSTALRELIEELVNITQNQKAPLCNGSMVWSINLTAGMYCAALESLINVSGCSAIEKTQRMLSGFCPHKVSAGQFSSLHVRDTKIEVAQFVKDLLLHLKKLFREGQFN

a-hIL-13 bioassay (IC50, pM) (human IL-13): 12.5 pM
a-hIL-4 bioassay IC50, pM) (human IL-4): 3.2 pM
a-IL-33 bioassay cys mutant IL33) IC50 (pM) [1]: 45 pM
B1: IL13433-0005 (other)
heavy: EVTLRESGPALVKPTQTLTLTCTFSGFSLSNFGEGLSWIRQPPGKGLEWLAHIYWDDDKRYNPSLKSRLTISKDTSRNQVVLTMTNMDPVDTATYYCARRETVFYWYFDVWGQGTTVTVSSASTKGPSVFPEAPSSKSTSGGTAALGCLVKDYFPEPVTVSWNSGALTSGVHTFPAVLQSSGLYSLGSVVTVPSSSLGTQTYICNVNHKPSNTKVDKKVEPKSCDKTHTCPPCPAPEAAGAPSVFLFPPKPKDTLMISRTPEVTCVVVDVSHEDPEVKFNWYVDGVEVHNAKTKPREEQYNSTYRVVSVLTVLHQDWLNGKEYKCKVSNKALPAPIEKTISKAKGQPREPQVYTLPPCREEMTKNQVSLSCAVKGFYPSDIAVEWESNGQPENNYKTTPPVLDSDGSFFLVSKLTVDKSRWQQGNVFSCSVMHEALHNHYTQKSLSLSPGK
chain 1: DIQMTQSPSSLSASVGDRVTITCKASQNINKHLDWYQQKPGKAPKLLIYFTNNLQTGVPSRFSGSGSGTDFTLTISSLQPEDFATYYCFQYNQGWTFGGGTKVEIKRTVAAPSVFIFPPSDEQLKSGTASVVCLLNNFYPREAKVQWKVDNALQSGNSQESVTEQDSKDSTYSLSSTLTLSKADYEKHKVYACEVTHQGLSSPVTKSFNRGECGGGGSEVQLVESGGGLVQPGGSLRLSCAASGFTFSSYAMSWVRQAPGKGLEWVASISSGDTTYYPDSVKGRFTISRDNAKNSLYLQMNSLRAEDTAVYYCARNEGYYFGLTLWGQGTLVTVSSASTKGPSVFPKAPSSKSTSGGTAALGCLVKDYFPEPVTVSWNSGALTSGVHTFPAVLQSSGLYSLSSSVTVPSSSLGTQTYICNVNHKPSNTKVDKKVEPKSCDKTHTCPPCPAPEAAGAPSVFLFPPKPKDTLMISRTPEVTCVVVDVSHEDPEVKFNWYVDGVEVHNAKTKPREEQYNSTYRVVSVLTVLHQDWLNGKEYKCKVSNKALPAPIEKTISKAKGQPREPQVCTLPPSREEMTKNQVSLWCLVKGFYPSDIAVEWESNGQPENNYKTTPPVLDSDGSFFLYSKLTVDKSRWQQGNVFSCSVMHEALHNHYTQKSLSLSPGK
light 1: DIQMTQSPSSLSASVGDRVTITCKASQSVDEDGDSYMNWYQQKPGKAPKLLIYAASNLESGVPSRFSGSGSGTDFTLTISSLQPEDFATYYCQQSNEDPPTFGGGTKVEIKRTVAAPSVFIFPPSDEQLKSGTASVSCLLNNFYPREAKVQWKVDNALQSGNSQESVTEQDSKDSTYSLKSTLTLSKADYEKHKVYACEVTHQGLSSPVTKSFNRGEC
light 2: B1 light 1 with Q27E, E31H, D32F, D34W, Y36L, M37V, N38H, A54R, P100W, K180D
chain 2: EVQLVESGGGLVQPGGSLRLSCAASGFTFSSYWMYWVRQAPGKGLEWVAAITPNAGEDYYPESVKGRFTISRDNAKNSLYLQMNSLRAEDTAVYYCARGHYYYTSYSLGYWGQGTLVTVSSASTKGPSVFPLAPSSKSTSGGTAALGCLVKDYFPEPVTVSWNSGALTSGVHTFPAVLQSSGLYSLSSVVTVPSSSLGTQTYICNVNHKPSNTKVDKKVEPKSC

a-IL-33 bioassay (WT IL33) IC50 (pM) [2]: 112 pM
a-hIL-13 bioassay (IC50, pM) (human IL-13): 9.01 pM
a-hIL-4 bioassay IC50, pM) (human IL-4): 10.3 pM
B2: IL13433-0006 (other)
heavy: EVQLVESGGGLVQPGGSLRLSCAASGFTFSSYAMSWVRQAPGKGLEWVASISSGDTTYYPDSVKGRFTISRDNAKNSLYLQMNSLRAEDTAVYYCARNEGYYFGLTLWGQGTLVTVSSASTKGPSVFPKAPSSKSTSGGTAALGCLVKDYFPEPVTVSWNSGALTSGVHTFPAVLQSSGLYSLSSSVTVPSSSLGTQTYICNVNHKPSNTKVDKKVEPKSCDKTHTCPPCPAPEAAGAPSVFLFPPKPKDTLMISRTPEVTCVVVDVSHEDPEVKFNWYVDGVEVHNAKTKPREEQYNSTYRVVSVLTVLHQDWLNGKEYKCKVSNKALPAPIEKTISKAKGQPREPQVCTLPPSREEMTKNQVSLWCLVKGFYPSDIAVEWESNGQPENNYKTTPPVLDSDGSFFLYSKLTVDKSRWQQGNVFSCSVMHEALHNHYTQKSLSLSPGK
chain 1: DIQMTQSPSSLSASVGDRVTITCKASQNINKHLDWYQQKPGKAPKLLIYFTNNLQTGVPSRFSGSGSGTDFTLTISSLQPEDFATYYCFQYNQGWTFGGGTKVEIKRTVAAPSVFIFPPSDEQLKSGTASVVCLLNNFYPREAKVQWKVDNALQSGNSQESVTEQDSKDSTYSLSSTLTLSKADYEKHKVYACEVTHQGLSSPVTKSFNRGECGGGGSEVTLRESGPALVKPTQTLTLTCTFSGFSLSNFGEGLSWIRQPPGKGLEWLAHIYWDDDKRYNPSLKSRLTISKDTSRNQVVLTMTNMDPVDTATYYCARRETVFYWYFDVWGQGTTVTVSSASTKGPSVFPEAPSSKSTSGGTAALGCLVKDYFPEPVTVSWNSGALTSGVHTFPAVLQSSGLYSLGSVVTVPSSSLGTQTYICNVNHKPSNTKVDKKVEPKSCDKTHTCPPCPAPEAAGAPSVFLFPPKPKDTLMISRTPEVTCVVVDVSHEDPEVKFNWYVDGVEVHNAKTKPREEQYNSTYRVVSVLTVLHQDWLNGKEYKCKVSNKALPAPIEKTISKAKGQPREPQVYTLPPCREEMTKNQVSLSCAVKGFYPSDIAVEWESNGQPENNYKTTPPVLDSDGSFFLVSKLTVDKSRWQQGNVFSCSVMHEALHNHYTQKSLSLSPGK
light 1: B1 light 1 with Q27E, E31H, D32F, D34W, Y36L, M37V, N38H, A54R, P100W, K180D
light 2: B1 light 1
chain 2: B1 chain 2

a-hIL-13 bioassay (IC50, pM) (human IL-13): 20.3 pM
a-hIL-4 bioassay IC50, pM) (human IL-4): 66.9 pM
a-IL-33 bioassay cys mutant IL33) IC50 (pM) [1]: 182 pM
B3: IL13433-0607 (other)
heavy: B2 heavy with S53T, L107Q, Q110R, M429L, N435S
chain 1: B2 chain 1 with K24R, N28P, N30S, N280S, P281T, S285T, M650L, N656S
light 1: DIQMTQSPSSLSASVGDRVTITCRASESVDHFGWSLVHWYQQKPGKAPKLLIYRADSLETGVPSRFSGSGSGTDFTLTISSLQPEDFATYYCQQSNEDPWTFGGGTKVEIKRTVAAPSVFIFPPSDEQLKSGTASVSCLLNNFYPREAKVQWKVDNALQSGNSQESVTEQDSKDSTYSLDSTLTLSKADYEKHKVYACEVTHQGLSSPVTKSFNRGEC
light 2: B1 light 1 with K24R, D32E, N96H, E97K
chain 2: B1 chain 2

a-IL-33 bioassay (WT IL33) IC50 (pM) [2]: 12 pM
a-hIL-13 bioassay (IC50, pM) (human IL-13): 7.58 pM
a-hIL-4 bioassay IC50, pM) (human IL-4): 16.5 pM
B4: IL13433-1270 (other)
heavy: EVQLVESGGGLVQPGGSLRLSCAASGFTFSSYWMYWVRQAPGKGLEWVAAITPNAGEDYYPESVKGRFTISRDNAKNSLYLQMNSLRAEDTAVYYCARGQYYYTKYSLGYWGQGTLVTVSSASTKGPSVFPKAPSSKSTSGGTAALGCLVKDYFPEPVTVSWNSGALTSGVHTFPAVLQSSGLYSLSSSVTVPSSSLGTQTYICNVNHKPSNTKVDKKVEPKSCDKTHTCPPCPAPEAAGAPSVFLFPPKPKDTLMISRTPEVTCVVVDVSHEDPEVKFNWYVDGVEVHNAKTKPREEQYNSTYRVVSVLTVLHQDWLNGKEYKCKVSNKALPAPIEKTISKAKGQPREPQVCTLPPSREEMTKNQVSLWCLVKGFYPSDIAVEWESNGQPENNYKTTPPVLDSDGSFFLYSKLTVDKSRWQQGNVFSCSVLHEALHSHYTQKSLSLSPGK
chain 1: DIQMTQSPSSLSASVGDRVTITCKASESVDHFGWSLVHWYQQKPGKAPKLLIYRASNLESGVPSRFSGSGSGTDFTLTISSLQPEDFATYYCQQSNEDPWTFGGGTKVEIKRTVAAPSVFIFPPSDEQLKSGTASVVCLLNNFYPREAKVQWKVDNALQSGNSQESVTEQDSKDSTYSLSSTLTLSKADYEKHKVYACEVTHQGLSSPVTKSFNRGECGGGGSEVTLRESGPALVKPTQTLTLTCTFSGFSLSNFGEGLSWIRQPPGKGLEWLAHIYWDDDKRYNPSLKSRLTISKDTSRNQVVLTMTNMDPVDTATYYCARRETVFYWYFDVWGQGTTVTVSSASTKGPSVFPEAPSSKSTSGGTAALGCLVKDYFPEPVTVSWNSGALTSGVHTFPAVLQSSGLYSLGSVVTVPSSSLGTQTYICNVNHKPSNTKVDKKVEPKSCDKTHTCPPCPAPEAAGAPSVFLFPPKPKDTLMISRTPEVTCVVVDVSHEDPEVKFNWYVDGVEVHNAKTKPREEQYNSTYRVVSVLTVLHQDWLNGKEYKCKVSNKALPAPIEKTISKAKGQPREPQVYTLPPCREEMTKNQVSLSCAVKGFYPSDIAVEWESNGQPENNYKTTPPVLDSDGSFFLVSKLTVDKSRWQQGNVFSCSVLHEALHSHYTQKSLSLSPGK
light 1: DIQMTQSPSSLSASVGDRVTITCRASQPIHNHLDWYQQKPGKAPKLLIYFGKNLQEGVPSRFSGSGSGTDFTLTISSLQPEDFATYYCFQYKKGWSFGGGTKVEIKRTVAAPSVFIFPPSDEQLKSGTASVSCLLNNFYPREAKVQWKVDNALQSGNSQESVTEQDSKDSTYSLDSTLTLSKADYEKHKVYACEVTHQGLSSPVTKSFNRGEC
light 2: B1 light 1 with K24R, D32E, E97K
chain 2: EVQLVESGGGLVQPGGSLRLSCAASGFTFSSYAMSWVRQAPGKGLEWVASISSGDTTYYPDSVKGRFTISRDNAKNSLYLQMNSLRAEDTAVYYCARNEGYYFGLTLWGQGTLVTVSSASTKGPSVFPLAPSSKSTSGGTAALGCLVKDYFPEPVTVSWNSGALTSGVHTFPAVLQSSGLYSLSSVVTVPSSSLGTQTYICNVNHKPSNTKVDKKVEPKSC
